Laboratory results from paper PMC10287910.

How the values were obtained:
[1] = system: ParA2 K124R (Vibrio cholerae); experiment: EMSA
[2] = system: ParA2-GFP (Vibrio cholerae); experiment: EMSA
[3] = system: ParA2 (Vibrio cholerae); experiment: EMSA
[4] = system: ParA2 K124E (Vibrio cholerae); experiment: EMSA
[5] = system: ParA2 K124Q (Vibrio cholerae); experiment: EMSA
[6] = biological target: ParA2 ATPase (wild type), Vibrio cholerae chromosome 2 (Vibrio cholerae); experiment: SEC-MALS; 40 uM ParA2 alone or pre-incubated with ADP or ATP; Superdex 200 10/300 GL; 50 mM Tris-HCl pH 7.5, 100 mM NaCl, 5.0 mM MgCl2, 0.1 mM EDTA, 1.0 mM DTT, 1.0 mM NaN3; monomer to dimer
[7] = biological target: ParA2 ATPase (wild type), Vibrio cholerae chromosome 2 (Vibrio cholerae)

Q: How did the Kd [1] turn out when “CGAGGTCGACGGTATCGATAAGCTTGATATCGAATTCCTGCAGCCCGGGGGATCCACTAGTTCTAGAGC (double strand) [Cy3-69 bp nsDNA]” was run?
A: 47.1 nM

Q: What about the Kd [2] of the same substance?
A: 40 nM

Q: And the Kd [3]?
A: 1000 nM

Q: And the Kd [4]?
A: 452 nM

Q: And the Kd [5]?
A: 138 nM

Q: For “ParA2 ATPase (wild type), Vibrio cholerae chromosome 2 (enzyme)”, which stoichiometry N [6] is on record?
A: 2

Q: For “ParB2, Vibrio cholerae chromosome 2 (natural protein)”, which pre-steady state ATP hydrolysis rate of ParA2 (1.5 uM), stimulation by ParB2 at equimolar concentration [7] is on record?
A: 3 fold

Q: And the pre-steady state ATP hydrolysis rate of ParA2 (1.5 uM), stimulation in the presence of both DNA and ParB2 [7]?
A: 8 fold
